Biological target: T1, CD70 (human, UniProt P32970 1-193)
T1 sequence (looked up): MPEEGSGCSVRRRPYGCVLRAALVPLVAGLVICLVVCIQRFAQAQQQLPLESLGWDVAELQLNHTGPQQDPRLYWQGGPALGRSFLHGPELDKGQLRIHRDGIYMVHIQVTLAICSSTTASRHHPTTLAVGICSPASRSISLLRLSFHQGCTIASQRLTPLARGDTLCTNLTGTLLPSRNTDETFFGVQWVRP
Assay: cell-based or functional assay

B1: ARGX-110 (cusatuzumab) (antibody, V domains shown)
VH: EVQLVESGGGLVQPGGSLRLSCAASGFTFSVYYMNWVRQAPGKGLEWVSDINNEGGTTYYADSVKGRFTISRDNSKNSLYLQMNSLRAEDTAVYYCARDAGYSNHVPIFDSWGQGTLVTVSS
VL: QAVVTQEPSLTVSPGGTVTLTCGLKSGSVTSDNFPTWYQQTPGQAPRLLIYNTNTRHSGVPDRFSGSILGNKAALTITGAQADDEAEYFCALFISNPSVEFGGGTQLTVLG
- IC50 of killing of MOLM-13 AML cells in the presence of CFSE-labelled NK cells (ratio 1:1): 0.68 µg/mL
- IC50 of killing of MV4-11 AML cells in the presence of CFSE-labelled NK cells (ratio 1:1): 1.2 µg/mL
- IC50 of killing of NB4 AML cells in the presence of CFSE-labelled NK cells (ratio 1:1): 0.3 µg/mL
- IC50 of killing of NOMO-1 AML cells in the presence of CFSE-labelled NK cells (ratio 1:1): 0.14 µg/mL
